Source: patent US20100272709A1 (GENERAL HOSPITAL, published 2010)
Where a chain is given by its changes, count along the chain named.

Assays:
[1] = target: mouse monoclonal anti-dynamin GTPase antibody (Stressgene), recognizes the N-terminal GTPase domain; experiment: FLIM/FRET in fixed podocytes; lifetime of donor GTPase-Alexa488 with acceptor DAM-Alexa568; + control
[2] = target: mouse monoclonal anti-dynamin GTPase antibody (Stressgene), recognizes the N-terminal GTPase domain; experiment: FLIM/FRET in fixed podocytes; lifetime of donor GTPase-a488 with acceptor DAM-a568; + control
[3] = target: wild type dynamin (dynWT; recombinant dynamin 1) (UniProt Q05193)
[4] = target: dynK44A (dominant-negative dynamin mutant that cannot bind GTP) (UniProt Q05193); experiment: FLIM/FRET in fixed podocytes; donor GTPase-a488, acceptor Hudy1-a568; self-assembly
[5] = target: dynK44A (dominant-negative dynamin mutant that cannot bind GTP) (UniProt Q05193); experiment: FLIM/FRET in fixed podocytes treated with cytochalasin D; donor GTPase-a488, acceptor Hudy1-a568; self-assembly
[6] = target: mouse monoclonal anti-dynamin GTPase antibody (Stressgene), recognizes the N-terminal GTPase domain; experiment: FLIM/FRET in fixed podocytes; lifetime of donor GTPase-Alexa488 with acceptor GAR-Alexa568; - control
EYFP-dynK44A fusion = target: T1, EYFP-dynK44A fusion (UniProt Q05193); experiment: FLIM/FRET in live COS cells; lifetime of the ECFP donor; self-assembly
T1 sequence (looked up): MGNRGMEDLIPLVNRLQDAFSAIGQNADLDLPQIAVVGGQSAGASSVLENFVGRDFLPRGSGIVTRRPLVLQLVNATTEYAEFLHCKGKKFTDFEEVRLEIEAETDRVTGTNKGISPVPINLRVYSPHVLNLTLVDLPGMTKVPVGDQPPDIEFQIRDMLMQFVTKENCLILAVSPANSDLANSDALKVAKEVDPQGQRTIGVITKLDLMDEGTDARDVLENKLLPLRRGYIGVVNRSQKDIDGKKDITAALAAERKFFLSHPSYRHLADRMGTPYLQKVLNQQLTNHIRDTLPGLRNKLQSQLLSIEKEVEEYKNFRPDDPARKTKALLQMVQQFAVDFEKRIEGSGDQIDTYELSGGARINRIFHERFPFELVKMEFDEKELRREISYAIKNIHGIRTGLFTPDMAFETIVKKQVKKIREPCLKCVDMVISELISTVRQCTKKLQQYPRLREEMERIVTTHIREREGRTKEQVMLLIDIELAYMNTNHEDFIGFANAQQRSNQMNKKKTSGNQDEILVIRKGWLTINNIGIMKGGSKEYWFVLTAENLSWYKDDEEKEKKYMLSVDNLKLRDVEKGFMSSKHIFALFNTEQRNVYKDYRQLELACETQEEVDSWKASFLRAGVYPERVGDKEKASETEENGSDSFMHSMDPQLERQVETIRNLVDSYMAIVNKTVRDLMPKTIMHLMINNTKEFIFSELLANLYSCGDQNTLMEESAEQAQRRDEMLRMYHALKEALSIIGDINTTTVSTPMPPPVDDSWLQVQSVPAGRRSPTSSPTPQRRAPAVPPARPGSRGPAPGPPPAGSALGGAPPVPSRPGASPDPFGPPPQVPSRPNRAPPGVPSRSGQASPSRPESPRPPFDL

[7] = target: dynI690K (assembly incompetent dynamin mutant) (UniProt Q05193); experiment: FLIM/FRET in fixed podocytes; donor GTPase-a488, acceptor Hudy1-a568; self-assembly
[8] = target: dynI690K (assembly incompetent dynamin mutant) (UniProt Q05193); experiment: FLIM/FRET in fixed podocytes treated with cytochalasin D; donor GTPase-a488, acceptor Hudy1-a568; self-assembly
[9] = target: wild type dynamin (dynWT; recombinant dynamin 1), Q05193
[10] = target: dynK44A (dominant-negative dynamin mutant that cannot bind GTP), Q05193
[11] = target: T2, dynR725A (GTP-hydrolysis impaired dynamin mutant)
T2 chain: T1 sequence (looked up) with A44K, R725A

With “DAM-Alexa568 (secondary antibody used as positive control acceptor)” the Mean Lifetime (γ1) [1] was 1020 and the Mean Lifetime (γ1) [2] was 1020.

For cathepsin B (CatB, Sigma), the “cleavage of purified dynamin by CatB, Western blot” value [3] was “incubation of dynamin with CatB generated p55 in a nucleotide-independent manner”.

For “dynK44A (dominant-negative dynamin mutant that cannot bind GTP) (from UniProt Q05193 1-864) (enzyme)”, the Mean Lifetime (γ1) [4] was 2520 ps and the Mean Lifetime (γ1) [5] was 2310 ps.

Molecule “goat anti-rabbit-alexa568 (GARalexa568), negative control acceptor (antibody)” has a Mean Lifetime (γ1) [6] of 2420.

With purified cathepsin L (commercial) the “cleavage of purified dynamin by CatL at pH 7.0 with GTP, Western blot” value [3] was “addition of GTP resulted in the generation of a prominent proteolytic fragment with a molecular weight of -40 kD (p40)”, the “cleavage of purified dynamin by CatL at pH 7.0 with GTPγS, Western blot” value [3] was “addition of GTPγS, (non-hydrolysable GTP analog) did not stimulate cleavage by CatL” and the “cleavage of purified dynamin by CatL at pH 7.0 without nucleotide, Western blot” value [3] was “CatL did not cause significant cleavage of purified dynamin at pH 7.0”. For the same molecule, the “cleavage of recombinant dynamin 1 by purified cathepsin L at pH 7.0 with GTP, Western blot with GTPase antibody” value [3] was “addition of GTP in the assay resulted in significant cleavage of dynamin by cathepsin L”, the “cleavage of recombinant dynamin 1 by purified cathepsin L at pH 7.0 with GTPγS” value [3] was “Addition of GTPγS, non-hydrolyzable GTP homolog abolished dynamin cleavage by cathepsin L” and the “cleavage of recombinant dynamin by CatL at pH 5.0 and 6.0, silver staining” value [3] was “At pH 5.0 and 6.0, CatL was highly reactive towards recombinant dynamin, even in the absence of GTP”. For the same molecule, the “cleavage of recombinant dynamin by CatL at pH 5.0 and 6.0 with GTPγS, silver staining” value [3] was “this proteolysis was completely inhibited by addition of GTP7S” and the “cleavage of recombinant dynamin by cathepsin L at pH 5.0 and 6.0” value [3] was “at pH 5.0 and 6.0 cathepsin L potently proteolyzed recombinant dynamin”.

B1: ECFP-dynK44A fusion (protein, UniProt Q05193 1-864, looked up, not shown: large carriers)
chain: T1 sequence (looked up)
In the case of B1, the Mean Lifetime (γ1) ps (EYFP-dynK44A fusion) is reported as 1860 ps.

B2: dynI690K (assembly incompetent dynamin mutant) (enzyme, UniProt Q05193 1-864, looked up)
chain: T1 sequence (looked up) with A44K, I690K
With B2 the Mean Lifetime (γ1) [7] was 2360 ps and the Mean Lifetime (γ1) [8] was 2430 ps.

B3: endogenous mouse cathepsin L induced by LPS in podocytes and kidney (34 kD cytoplasmic short form) (protein)
chain: MRMIQLHNGEYSNGQHGFSMEMNAFGDMTNEEFRQVVNGYRHQKHKKGRLFQEPLMLKIPKSVDWREKGCVTPVKNQGQCGSCWAFSASGCLEGQMFLKTGKLISLSEQNLVDCSHAQGNQGCNGGLMDFAFQYIKENGGLDSEESYPYEAKDGSCKYRAEFAVANDTGFVDIPQQEKALMKAVATVGPISVAMDASHPSLQFYSSGIYYEPNCSSKNLDHGVLLVGYGYEGTDSNKNKYWLVKNSWGSEWGMEGYIKIAKDRDNHCGLATAASYPVVN
B3 was tested, and the “p40 proteolytic fragment in cytosol of LPS-treated podocytes expressing dynWT, Western blot” value [9] was “Addition of specific cathepsin L inhibitor (Z-FF-FMK, Calbiochem), to the tissue cultured podocytes treated with LPS resulted specifically in the loss of p40”, the “p40 proteolytic fragment in cytosol of LPS-treated podocytes expressing dynK44A, Western blot” value [10] was “LPS treatment of podocytes expressing dynK44A, enzyme that cannot bind GTP, did not result in detectable levels of p40” and the “p40 proteolytic fragment in cytosol of LPS-treated podocytes expressing dynR725A, Western blot” value [11] was “LPS treatment of podocytes expressing dynR725A completely abolished presence of the p40”. For the same molecule, the “p40 proteolytic fragment in cytosol of podocytes expressing dynR725A before LPS, Western blot” value [11] was “significant amount of p40 was present in cells expressing dynR725A prior to LPS treatment”.
